Assay [1] has as its target T1, human CXC Chemokine Receptor 3 (CXCR3) (human, UniProt P49682 1-368).
T1 construct: also called IP-10/Mig receptor; IP-10/MigR
T1 sequence: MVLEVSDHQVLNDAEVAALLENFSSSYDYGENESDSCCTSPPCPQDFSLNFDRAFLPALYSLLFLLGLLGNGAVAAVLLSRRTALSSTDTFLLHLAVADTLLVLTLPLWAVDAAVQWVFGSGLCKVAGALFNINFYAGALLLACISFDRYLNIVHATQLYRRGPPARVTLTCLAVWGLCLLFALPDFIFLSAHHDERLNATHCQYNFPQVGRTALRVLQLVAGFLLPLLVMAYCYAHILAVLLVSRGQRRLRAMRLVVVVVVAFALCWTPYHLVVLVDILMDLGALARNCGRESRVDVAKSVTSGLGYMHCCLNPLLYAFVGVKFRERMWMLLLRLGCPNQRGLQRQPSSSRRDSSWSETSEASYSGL
The assay is described as follows: cell-based or functional assay.

Assay [2] deals with T1, human CXC Chemokine Receptor 3 (CXCR3). Nature of the assay: inhibition of 0.05 nM 125I-IP-10 binding to activated T cells (CD3 blasts).
The target is the same in assay [3]. The assay is described as follows: inhibition of 125I-IP-10 binding to activated T cells.
Assay [4] shares this target. The assay is described as follows: summing-up of the radioligand binding studies; Mig itself was tested only as cold competitor of 125I-IP-10.

The term IC50 denotes the concentration that gives 50% inhibition. Read a low IC50 as inhibition by little substance. The Kd is a measure of binding affinity in units of concentration. Lower therefore signals tighter binding.

Molecule “MCP-1 (monocyte chemotactic protein-1) (from UniProt P13500 24-99) (ligand)” showed a [Ca2+]i changes in IP-10/MigR transfectants (no response up to the concentration given) in assay [1] of over 100 nM.
Regarding “MIP-1β (from UniProt P13236 24-92) (ligand)”, in assay [1], the [Ca2+]i changes in IP-10/MigR transfectants (no response up to the concentration given) is over 100 nM.
Still for that read-out and setting: the result for “ENA78 (epithelial-derived neutrophil-activating peptide 78) (from UniProt P42830 37-114) (ligand)” reads over 100 nM.
In turn, “MCP-4 (from UniProt Q99616 24-98) (ligand)” came in with a [Ca2+]i changes in IP-10/MigR transfectants (no response up to the concentration given) in assay [1] of over 100 nM.
The same measure, in the same setting: the result for “GROα (from UniProt P09341 35-107) (ligand)” reads over 100 nM; that for “MIP-1α (macrophage inflammatory protein-1α) (from UniProt P10147 24-92) (ligand)”, over 100 nM; that for “IL-8 (interleukin 8) (from UniProt P10145 28-99) (ligand)”, over 100 nM.
As to “RANTES (regulated on activation, normal T cell expressed and secreted) (from UniProt P13501 24-91) (ligand)”, in assay [1], the [Ca2+]i changes in IP-10/MigR transfectants (no response up to the concentration given) is over 100 nM.
The same measure, in the same setting: with “eotaxin (from UniProt P51671 24-97) (ligand)” the figure was over 100 nM; with “MCP-3 (from UniProt P80098 24-99) (ligand)”, over 100 nM; with “MCP-2 (from UniProt P80075 24-99) (ligand)”, over 100 nM.
The same measure, in the same setting: with “GCP-2 (granulocyte chemotactic protein-2) (from UniProt P80162 38-114) (ligand)” the figure was over 100 nM.
Still for that read-out and setting: the result for “lymphotactin (from UniProt P47992 22-114) (ligand)” reads over 100 nM.
“murine anti-CXCR3 monoclonal antibody 1C6”: the IC50 in assay [2] is 0.16 µg/mL. The same molecule displayed an antibody concentration giving complete inhibition of 125I-IP-10 binding in assay [3] of 1 to 10 µg/mL. In assay [1], this molecule gave an IC50, inhibition of IP-10 (12.5 nM) induced chemotaxis of activated T cells of 0.8 µg/mL; an IC50, inhibition of IP-10 mediated chemotaxis of activated T cells of 0.856 µg/mL; a Mig (2 nM) induced [Ca2+]i in activated T cells (no effect up to the concentration given) of over 50 µg/mL; an antibody concentration giving 100% inhibition of IP-10 induced chemotaxis of activated T cells of 2 to 5 µg/mL.

B1: PF4 (platelet factor 4) (ligand, human, UniProt P02776 32-101, looked up)
chain: EAEEDGDLQCLCVKTTSQVRPRHITSLEVIKAGPHCPTAQLIATLKNGRKICLDLQAPLYKKIIKKLLES
B1 had a [Ca2+]i changes in IP-10/MigR transfectants (no response up to the concentration given) in assay [1] of over 100 nM.

B2: Mig (monokine induced by gamma interferon) (ligand, human, UniProt Q07325 23-125, looked up)
chain: TPVVRKGRCSCISTNQGTIHLQSLKDLKQFAPSPSCEKIEIIATLKNGVQTCLNPDSADVKELIKKWEKQVSQKKKQKNGKKHQKKKVLKVRKSQRSRQKKTT
notes: also called cold Mig
On to B2, for which the Kd in assay [4] lay within 0.15 to 0.6 nM.

B3: I309 (ligand, human, UniProt P22362 24-96, looked up)
chain: KSMQVPFSRCCFSFAEQEIPLRAILCYRNTSSICSNEGLIFKLKRGKEACALDTVGWVQRHRKMLRHCPSKRK
As to B3, the [Ca2+]i changes in IP-10/MigR transfectants (no response up to the concentration given) in assay [1] was over 100 nM.

B4: NAP-2 (neutrophil-activating protein-2) (ligand, human, UniProt P02775 59-128, looked up)
chain: AELRCMCIKTTSGIHPKNIQSLEVIGKGTHCNQVEVIATLKDGRKICLDPDAPRIKKIVQKKLAGDESAD
B4 returned a [Ca2+]i changes in IP-10/MigR transfectants (no response up to the concentration given) in assay [1] of over 100 nM.

The record behind these values is patent US20100061983A1 (published 2010).
